Non-standard residues stand in square brackets, D forms with d. Groups on a side chain read outwards from the residue. *: point of attachment. Chol = cholesteryl, CC(C)CCC[C@@H](C)[C@H]1CC[C@H]2[C@@H]3CC=C4C[C@@H](*)CC[C@]4(C)[C@H]3CC[C@]12C; Benzenesulfonyl(4-tBu) = CC(C)(C)c1ccc(S(=O)(=O)*)cc1; 2,4,6‑trimethylbenzoyl = Cc1cc(C)c(C(=O)*)c(C)c1; Benzenesulfonyl(4-OMe) = COc1ccc(S(=O)(=O)*)cc1; 4‑(Br)‑2‑(Me)PhSO2 = Cc1cc(Br)ccc1S(=O)(=O)*; 4‑(i-Pr)PhSO2 = CC(C)c1ccc(S(=O)(=O)*)cc1; Benzoyl(4-tBu) = CC(C)(C)c1ccc(C(=O)*)cc1; 4‑(n-Pr)PhSO2 = CCCc1ccc(S(=O)(=O)*)cc1; Phe(3-F) = N[C@@H](Cc1cccc(F)c1)C(=O)O; Benzoyl(4-Br) = O=C(c1ccc(Br)cc1)*; 2Naphthoyl = O=C(c1ccc2ccccc2c1)*; Benzoyl(4-Me) = Cc1ccc(C(=O)*)cc1; Brosyl = O=S(=O)(c1ccc(Br)cc1)*; Ahx = NCCCCCC(=O)O
molecular target: T1, βTrCP (tag cleaved and complexed with Skp1) (UniProt Q9Y297 175-605; P63208 1-163); test: FP competition vs fluorescein-IκB peptide
T1 construct: Protein of the FP assay (0.035 µM); also called Beta Transducin repeat-containing protein; βTrCP/Skp1

Row | Binder | IC50
1 | {4‑(PhO)PhSO2}-[dD]EG[Phe(3-F)]WE-NH2 [4-(PhO)PhSO2-dEG-F(3F)-WE-NH2] | 63 nM

molecular target: T2, βTrCP (tag cleaved and complexed with Skp1) (UniProt Q9Y297 175-605; P63208 1-163); test: fluorescence polarisation assay; the column head does not say whether IC50 or Ki
T2 construct: Protein of the fluorescence polarisation assay, 0.035 µM; also called Beta Transducin repeat-containing protein; βTrCP/Skp1
Description: Assay components (without compound) were premixed in a microcentrifuge tube and incubated for 1 hour to ensure equilibrium was achieved. Each compound was then added to one tube, mixed by vortexing, and then dispensed into 3 wells of a black 384-well plate and incubated for 30 minutes. Fluorescence polarization was then read (excitation 485 nm, emission 530 nm) using an Analyst-AD from Molecular Devices.
Binding of the compounds to βTrCP was assessed using a fluorescence polarisation (FP) binding assay. The FP assay is an in vitro binding assay using a fluorescein-tagged IkB peptide at 10 nM to mimic substrate binding to βTrCP, and was performed as described above.

Row | Binder | FP Assay /
2 | {Benzenesulfonyl(4-OMe)}-[dD]EG[Phe(3-F)]WE[Ahx][dK][dK][dK][dK][dK][dK][dK][dK][dK]-NH2 (SMILES COc1ccc(S(=O)(=O)N[C@H](CC(=O)O)C(=O)N[C@@H](CCC(=O)O)C(=O)NCC(=O)N[C@@H](Cc2cccc(F)c2)C(=O)N[C@@H](Cc2c[nH]c3ccccc23)C(=O)N[C@@H](CCC(=O)O)C(=O)NCCCCCC(=O)N[C@H](CCCCN)C(=O)N[C@H](CCCCN)C(=O)N[C@H](CCCCN)C(=O)N[C@H](CCCCN)C(=O)N[C@H](CCCCN)C(=O)N[C@H](CCCCN)C(=O)N[C@H](CCCCN)C(=O)N[C@H](CCCCN)C(=O)N[C@H](CCCCN)C(N)=O)cc1, the sheet gives this poly-lysine compound the code UBP022; it is not the untailed UBP022 (1.m39, 5.m30, 6.m3)) [4-(MeO)PhSO2-dEGF(3F)WE-Ahx-k9-NH2] | 548 nM
3 | {Benzenesulfonyl(4-tBu)}-[dD]EG[Phe(3-F)]WE[Ahx]K(Benzoyl(4-Br))-NH2 (Round II CPP; also called UBP079) [4-(t-Bu)PhSO2-dEGF(3F)WE-Ahx-K(CO((4-Br)Ph))-NH2] | 40.8 nM
4 | {4‑(Br)‑2‑(Me)PhSO2}-[dD]EG[Phe(3-F)]WE[Ahx]K(2Naphthoyl)-NH2 (Round II CPP; also called UBP095) [4-(Br)-2-(Me)PhSO2-dEGF(3F)WE-Ahx-K(CO(2-Naphth))-NH2] | 86.7 nM
5 | {Benzenesulfonyl(4-tBu)}-[dD]EG[Phe(3-F)]WE[Ahx]K(2,4,6‑trimethylbenzoyl)-NH2 (Round II CPP; also called UBP077) [4-(t-Bu)PhSO2-dEGF(3F)WE-Ahx-K(CO((2,4,6-Me3)Ph))-NH2] | 40.9 nM
6 | {4‑(n-Pr)PhSO2}-[dD]EG[Phe(3-F)]WE[Ahx]K(2,4,6‑trimethylbenzoyl)-NH2 (Round II CPP; also called UBP086) [4-(n-Pr)PhSO2-dEGF(3F)WE-Ahx-K(CO((2,4,6-Me3)Ph))-NH2] | 29.4 nM
7 | {4‑(Br)‑2‑(Me)PhSO2}-[dD]EG[Phe(3-F)]WE[Ahx]K(Benzoyl(4-tBu))-NH2 (Round II CPP; also called UBP094) [4-(Br)-2-(Me)PhSO2-dEGF(3F)WE-Ahx-K(CO((4-tBu)Ph))-NH2] | 142 nM
8 | {Benzenesulfonyl(4-tBu)}-[dD]EG[Phe(3-F)]WE[Ahx]K(Benzoyl(4-Me))-NH2 (Round II CPP; also called UBP078) [4-(t-Bu)PhSO2-dEGF(3F)WE-Ahx-K(CO((4-Me)Ph))-NH2] | 40 nM
9 | {4‑(i-Pr)PhSO2}-[dD]EG[Phe(3-F)]WE[Ahx]K(Benzoyl(4-Br))-NH2 (Round II CPP; also called UBP083) [4-(i-Pr)PhSO2-dEGF(3F)WE-Ahx-K(CO((4-Br)Ph))-NH2] | 36.5 nM
10 | {4‑(i-Pr)PhSO2}-[dD]EG[Phe(3-F)]WE[Ahx]K(Benzoyl(4-tBu))-NH2 (Round II CPP; also called UBP080) [4-(i-Pr)PhSO2-dEGF(3F)WE-Ahx-K(CO((4-tBu)Ph))-NH2] | 73 nM
11 | {Benzenesulfonyl(4-tBu)}-[dD]EG[Phe(3-F)]WE[Ahx]K(2Naphthoyl)-NH2 (Round II CPP; also called UBP076) [4-(t-Bu)PhSO2-dEGF(3F)WE-Ahx-K(CO(2-Naphth))-NH2] | 43.4 nM
12 | Brosyl-[dD]EG[Phe(3-F)]WE[Ahx]K(Benzoyl(4-Br))-NH2 (Round II CPP; also called UBP093) [4-(Br)PhSO2-dEGF(3F)WE-Ahx-K(CO((4-Br)Ph))-NH2] | 106 nM
13 | Brosyl-[dD]EG[Phe(3-F)]WE[Ahx]K(Benzoyl(4-tBu))-NH2 (Round II CPP; also called UBP089) [4-(Br)PhSO2-dEGF(3F)WE-Ahx-K(CO((4-tBu)Ph))-NH2] | 305 nM
14 | {4‑(Br)‑2‑(Me)PhSO2}-[dD]EG[Phe(3-F)]WE[Ahx]K(Benzoyl(4-Br))-NH2 (Round II CPP; also called UBP098) [4-(Br)-2-(Me)PhSO2-dEGF(3F)WE-Ahx-K(CO((4-Br)Ph))-NH2] | 92.4 nM
15 | {Benzenesulfonyl(4-tBu)}-[dD]EG[Phe(3-F)]WE[Ahx]K(Benzoyl(4-tBu))-NH2 (Round II CPP; also called UBP075) [4-(t-Bu)PhSO2-dEGF(3F)WE-Ahx-K(CO((4-tBu)Ph))-NH2] | 87.8 nM
16 | {4‑(n-Pr)PhSO2}-[dD]EG[Phe(3-F)]WE[Ahx]K(Benzoyl(4-Me))-NH2 (Round II CPP; also called UBP087) [4-(n-Pr)PhSO2-dEGF(3F)WE-Ahx-K(CO((4-Me)Ph))-NH2] | 58.3 nM
17 | {4‑(i-Pr)PhSO2}-[dD]EG[Phe(3-F)]WE[Ahx]K(2,4,6‑trimethylbenzoyl)-NH2 (Round II CPP; also called UBP082) [4-(i-Pr)PhSO2-dEGF(3F)WE-Ahx-K(CO((2,4,6-Me3)Ph))-NH2] | 56.1 nM
18 | {4‑(n-Pr)PhSO2}-[dD]EG[Phe(3-F)]WE[Ahx]K(Benzoyl(4-Br))-NH2 (Round II CPP; also called UBP088) [4-(n-Pr)PhSO2-dEGF(3F)WE-Ahx-K(CO((4-Br)Ph))-NH2] | 39.6 nM
19 | {Benzenesulfonyl(4-OMe)}-[dD]EG[Phe(3-F)]WE[Ahx]K([Ahx-Chol])-NH2 (X stands for Ahx; also called UBP036) [4-(MeO)PhSO2-dEGF(3F)WE-Ahx-K(Ahx-Chol)-NH2] | 19.3 nM
20 | {4‑(n-Pr)PhSO2}-[dD]EG[Phe(3-F)]WE[Ahx]K(2Naphthoyl)-NH2 (Round II CPP; also called UBP085) [4-(n-Pr)PhSO2-dEGF(3F)WE-Ahx-K(CO(2-Naphth))-NH2] | 136 nM
21 | {4‑(i-Pr)PhSO2}-[dD]EG[Phe(3-F)]WE[Ahx]K(2Naphthoyl)-NH2 (Round II CPP; also called UBP081) [4-(i-Pr)PhSO2-dEGF(3F)WE-Ahx-K(CO(2-Naphth))-NH2] | 7.66 nM
22 | Brosyl-[dD]EG[Phe(3-F)]WE[Ahx]K(2Naphthoyl)-NH2 (Round II CPP; also called UBP090) [4-(Br)PhSO2-dEGF(3F)WE-Ahx-K(CO(2-Naphth))-NH2] | 133 nM
23 | {4‑(Br)‑2‑(Me)PhSO2}-[dD]EG[Phe(3-F)]WE[Ahx]K(Benzoyl(4-Me))-NH2 (Round II CPP; also called UBP097) [4-(Br)-2-(Me)PhSO2-dEGF(3F)WE-Ahx-K(CO((4-Me)Ph))-NH2] | 114 nM
24 | {4‑(n-Pr)PhSO2}-[dD]EG[Phe(3-F)]WE[Ahx]K(Benzoyl(4-tBu))-NH2 (Round II CPP; also called UBP084) [4-(n-Pr)PhSO2-dEGF(3F)WE-Ahx-K(CO((4-tBu)Ph))-NH2] | 174 nM
25 | {4‑(Br)‑2‑(Me)PhSO2}-[dD]EG[Phe(3-F)]WE[Ahx]K(2,4,6‑trimethylbenzoyl)-NH2 (Round II CPP; also called UBP096) [4-(Br)-2-(Me)PhSO2-dEGF(3F)WE-Ahx-K(CO((2,4,6-Me3)Ph))-NH2] | 114 nM
26 | Brosyl-[dD]EG[Phe(3-F)]WE[Ahx]K(Benzoyl(4-Me))-NH2 (Round II CPP; also called UBP092) [4-(Br)PhSO2-dEGF(3F)WE-Ahx-K(CO((4-Me)Ph))-NH2] | 151 nM
27 | Brosyl-[dD]EG[Phe(3-F)]WE[Ahx]K(2,4,6‑trimethylbenzoyl)-NH2 (Round II CPP; also called UBP091) [4-(Br)PhSO2-dEGF(3F)WE-Ahx-K(CO((2,4,6-Me3)Ph))-NH2] | 88.3 nM

molecular target: T3, Beta Transducin repeat-containing protein (βTrCP), tag cleaved and complexed with Skp1 (UniProt Q9Y297 175-605; P63208 1-163); test: FP competition dose-response, fluorescein-IkB peptide tracer on βTrCP/Skp1 (average Ki; assay not given)
T3 construct: the FP protocol says that Ki is determined from FP dose-response curves; also called βTrCP/Skp1
T3 sequence (Q9Y297 175-605, chain 1 of 2): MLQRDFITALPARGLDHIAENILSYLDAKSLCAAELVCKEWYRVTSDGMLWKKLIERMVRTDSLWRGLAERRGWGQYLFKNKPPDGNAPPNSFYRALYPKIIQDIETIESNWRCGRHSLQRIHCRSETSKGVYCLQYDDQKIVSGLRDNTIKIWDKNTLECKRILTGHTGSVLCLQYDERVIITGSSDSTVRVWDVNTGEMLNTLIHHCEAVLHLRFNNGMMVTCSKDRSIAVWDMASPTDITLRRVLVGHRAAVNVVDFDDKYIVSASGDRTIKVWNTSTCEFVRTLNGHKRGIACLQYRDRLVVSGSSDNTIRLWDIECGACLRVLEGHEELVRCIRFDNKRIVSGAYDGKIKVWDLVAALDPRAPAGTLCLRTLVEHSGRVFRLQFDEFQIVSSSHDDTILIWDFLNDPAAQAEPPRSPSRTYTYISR
T3 sequence (P63208 whole entry, chain 2 of 2): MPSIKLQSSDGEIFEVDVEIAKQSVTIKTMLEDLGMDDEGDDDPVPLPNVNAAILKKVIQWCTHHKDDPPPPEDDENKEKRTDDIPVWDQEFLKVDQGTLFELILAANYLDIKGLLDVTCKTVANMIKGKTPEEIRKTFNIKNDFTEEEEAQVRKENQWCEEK

Row | Binder | Ki
28 | {4‑Cl‑PhSO2}-[dD]EG[Phe(3-F)]WE-NH2 (also called UBP053) [4-Cl-PhSO2-dEGF(3F)WE-NH2] | 330 nM
29 | {4‑I‑PhSO2}-[dD]EG[Phe(3-F)]WE-NH2 (also called UBP052) [4-I-PhSO2-dEGF(3F)WE-NH2] | 253 nM
30 | {4‑CF3‑PhSO2}-[dD]EG[Phe(3-F)]WE-NH2 (also called UBP047) [4-CF3-PhSO2-dEGF(3F)WE-NH2] | 9.45 nM
31 | {4‑Br‑3‑CF3‑PhSO2}-[dD]EG[Phe(3-F)]WE-NH2 (also called UBP046) [4-Br-3-CF3-PhSO2-dEGF(3F)WE-NH2] | 14.2 nM
32 | {4‑OCF3‑PhSO2}-[dD]EG[Phe(3-F)]WE-NH2 (also called UBP045) [4-OCF3-PhSO2-dEGF(3F)WE-NH2] | 4.77 nM
33 | {2,4‑(Br)2‑PhSO2}-[dD]EG[Phe(3-F)]WE-NH2 (also called UBP049) [2,4-(Br)2-PhSO2-dEGF(3F)WE-NH2] | 45.3 nM
34 | {2,4‑(Cl)2‑PhSO2}-[dD]EG[Phe(3-F)]WE-NH2 (also called UBP048) [2,4-(Cl)2-PhSO2-dEGF(3F)WE-NH2] | 27 nM
35 | {4‑Br‑2‑CH3‑PhSO2}-[dD]EG[Phe(3-F)]WE-NH2 (also called UBP043) [4-Br-2-CH3-PhSO2-dEGF(3F)WE-NH2] | 3.96 nM
36 | {3,5‑(CH3)2‑PhSO2}-[dD]EG[Phe(3-F)]WE-NH2 (also called UBP050) [3,5-(CH3)2-PhSO2-dEGF(3F)WE-NH2] | 24.6 nM
37 | {4‑Br‑PhSO2}-[dD]EG[Phe(3-F)]WE-NH2 (also called UBP042) [4-Br-PhSO2-dEGF(3F)WE-NH2] | 2.52 nM
38 | {2‑Naph‑SO2}-[dD]EG[Phe(3-F)]WE-NH2 (also called UBP044) [2-Naph-SO2-dEGF(3F)WE-NH2] | 5.81 nM
39 | {4‑Br‑2‑OCF3‑PhSO2}-[dD]EG[Phe(3-F)]WE-NH2 (also called UBP051) [4-Br-2-OCF3-PhSO2-dEGF(3F)WE-NH2] | 110 nM

— patent US20190106460A1 (published 2019)
